# From patent publication US20260049160A1 (Hoffmann-La Roche, published 2026)
# Substitutions are numbered along the chain they refer to.
# B1: Chimeric TIM3-0028 (antibody, V domains shown)
# VH: EVQLQQSVAELVRPGASVKLSCTASGFNIKTTYMHWVKQRPEQGLEWIGRIDPADDNTKYAPKFQGKATITADTSSNTAYLQLSSLTSEDAAIYYCVRDFGYVAWFAYWGQGTLVTFSA
# VL: NIVMTPTPKFLPVSSGDRVTMTCRASQSVDNYVAWYQQKPGQSPKLLIYYASNRYIGVPDRFTGSGSGTDFTFTISSVQVEDLAVYFCQQHYSSPYTFGSGTKLEIK
# notes: Bivalent IgG; also called TIM3 IgG (bivalent); copies: 2 + 2
# B2: Ang2VEGF-0273 (bispecific antibody, human IgG1, kappa)
# light 1: QPGLTQPPSVSVAPGQTARITCGGNNIGSKSVHWYQQKPGQAPVLVVYDDSDRPSGIPERFSGSNSGNTATLTISRVEAGDEADYYCQVWDSSSDHYVFGTGTKVTVLRTVAAPSVFIFPPSDEQLKSGTASVVCLLNNFYPREAKVQWKVDNALQSGNSQESVTEQDSKDSTYSLSSTLTLSKADYEKHKVYACEVTHQGLSSPVTKSFNRGEC
# heavy 1: not shown
# heavy 2: not shown
# light 2: EVQLVESGGGLVQPGGSLRLSCAASGYTFTNYGMNWVRQAPGKGLEWVGWINTYTGEPTYAADFKRRFTFSLDTSKSTAYLQMNSLRAEDTAVYYCAKYPHYYGSSHWYFDVWGQGTLVTVSSASVAAPSVFIFPPSDEQLKSGTASVVCLLNNFYPREAKVQWKVDNALQSGNSQESVTEQDSKDSTYSLSSTLTLSKADYEKHKVYACEVTHQGLSSPVTKSFNRGEC
# notes: Bivalent CrossMab, non-crossed ANG2 arm and VH/VL-crossed VEGF arm; wild type CH1/CL interface (control)
# B3: Ang2VEGF-0283 (bispecific antibody, human IgG1, lambda)
# light 1: QPGLTQPPSVSVAPGQTARITCGGNNIGSKSVHWYQQKPGQAPVLVVYDDSDRPSGIPERFSGSNSGNTATLTISRVEAGDEADYYCQVWDSSSDHYVFGTGTKVTVLGQPKAAPSVTLFPPSSKKLQANKATLVCLISDFYPGAVTVAWKADSSPVKAGVETTTPSKQSNNKYAASSYLSLTPEQWKSHRSYSCQVTHEGSTVEKTVAPTECS
# heavy 1: not shown
# heavy 2: not shown
# light 2: B2 light 2
# notes: Bivalent CrossMab; knobs-into-holes
# B4: Ang2VEGF-0282 (bispecific antibody, human IgG1, kappa)
# light 1: B2 light 1 with E124K, Q125R
# heavy 1: not shown
# heavy 2: not shown
# light 2: B2 light 2 with Q140E
# notes: as for B3
# B5: Ang2VEGF-0394 (bispecific antibody, human IgG1, kappa)
# light 1: B2 light 1 with E124K
# heavy 1: not shown
# heavy 2: not shown
# light 2: B2 light 2
# notes: as for B3
# B6: Ang2VEGF-0285 (bispecific antibody, human IgG1, kappa)
# light 1: B2 light 1 with E124K, Q125R
# heavy 1: not shown
# heavy 2: not shown
# light 2: B2 light 2 with Q140E
# notes: as for B3
# B7: Ang2VEGF-0397 (bispecific antibody, human IgG1, kappa)
# light 1: B2 light 1 with Q125K
# heavy 1: not shown
# heavy 2: not shown
# light 2: B2 light 2
# notes: as for B3
# B8: Ang2VEGF-0395 (bispecific antibody, human IgG1, kappa)
# light 1: B2 light 1 with E124K
# heavy 1: not shown
# heavy 2: not shown
# light 2: B2 light 2
# notes: as for B3
# B9: Ang2VEGF-0284 (bispecific antibody, human IgG1, kappa)
# light 1: B2 light 1 with E124K, Q125R
# heavy 1: not shown
# heavy 2: not shown
# light 2: B2 light 2
# notes: as for B3
# B10: Ang2VEGF-0274 (bispecific antibody, human IgG1, kappa)
# light 1: B2 light 1 with E124K, Q125K
# heavy 1: not shown
# heavy 2: not shown
# light 2: B2 light 2
# notes: as for B3
# B11: Ang2VEGF-0396 (bispecific antibody, human IgG1, kappa)
# light 1: B2 light 1 with Q125K
# heavy 1: not shown
# heavy 2: not shown
# light 2: B2 light 2
# notes: as for B3
# B12: Ang2VEGF-0286 (bispecific antibody, human IgG1, kappa)
# light 1: B2 light 1 with E124K, Q125K
# heavy 1: not shown
# heavy 2: not shown
# light 2: B2 light 2 with Q140E
# notes: as for B3
# B13: Chimeric TIM3-0018 (antibody, V domains shown)
# VH: QVTLKESGPGILQPSQTLSLTCSFSGFSLSTSGMSVGWIRQPSGKGLEWLAHIWLNDDVFFNPALKRRLTISKDTSNNQVFLQIASVVTADTATYYCVRANGYLYALDYWGQGISVTVSS
# VL: QIVLTQSPAIMSASPGQKVTITCSASSSVNYTQWYQQKLGSSPKLWIYDAFKLAPGVPARFSGSGTGTSYSLTISSMEAEDAASYFCHQWSSYPWTFGGGTKLEIK
# notes: as for B1
# B14: 2 + 2 PD1TIM3_0359: chimeric PD1-0103/Tim3-0018 (bispecific antibody, human IgG1, kappa, L234A L235A)
# heavy: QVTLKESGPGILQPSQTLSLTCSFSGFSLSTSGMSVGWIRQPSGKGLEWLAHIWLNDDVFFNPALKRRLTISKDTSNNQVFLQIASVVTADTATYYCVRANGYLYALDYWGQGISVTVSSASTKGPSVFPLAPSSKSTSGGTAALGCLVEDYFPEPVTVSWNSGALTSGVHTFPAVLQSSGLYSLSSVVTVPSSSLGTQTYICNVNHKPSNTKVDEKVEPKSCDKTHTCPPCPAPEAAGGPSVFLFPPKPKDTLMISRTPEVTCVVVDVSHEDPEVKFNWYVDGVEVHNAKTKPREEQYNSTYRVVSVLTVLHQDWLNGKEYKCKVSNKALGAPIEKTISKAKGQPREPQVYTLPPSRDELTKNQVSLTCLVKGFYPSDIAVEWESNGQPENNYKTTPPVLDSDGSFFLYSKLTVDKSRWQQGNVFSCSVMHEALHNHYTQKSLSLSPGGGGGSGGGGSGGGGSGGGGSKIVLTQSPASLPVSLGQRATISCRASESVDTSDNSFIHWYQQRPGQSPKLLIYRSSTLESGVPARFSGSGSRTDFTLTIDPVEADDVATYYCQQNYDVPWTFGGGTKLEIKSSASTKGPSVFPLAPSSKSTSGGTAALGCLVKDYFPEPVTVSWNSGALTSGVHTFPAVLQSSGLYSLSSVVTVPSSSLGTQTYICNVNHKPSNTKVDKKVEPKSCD
# light 1: QIVLTQSPAIMSASPGQKVTITCSASSSVNYTQWYQQKLGSSPKLWIYDAFKLAPGVPARFSGSGTGTSYSLTISSMEAEDAASYFCHQWSSYPWTFGGGTKLEIKRTVAAPSVFIFPPSDRKLKSGTASVVCLLNNFYPREAKVQWKVDNALQSGNSQESVTEQDSKDSTYSLSSTLTLSKADYEKHKVYACEVTHQGLSSPVTKSFNRGEC
# light 2: EVILVESGGGLVKPGGSLKLSCAASGFSFSSYTMSWVRQTPEKRLDWVATISGGGRDIYYPDSVKGRFTISRDNAKNTLYLEMSSLMSEDTALYYCVLLTGRVYFALDSWGQGTSVTVSSASVAAPSVFIFPPSDEQLKSGTASVVCLLNNFYPREAKVQWKVDNALQSGNSQESVTEQDSKDSTYSLSSTLTLSKADYEKHKVYACEVTHQGLSSPVTKSFNRGEC
# notes: Tetravalent 2+2 CrossMAb VH-VL with charged substitutions in the CH1/CL interfaces; also called PD1TIM3-0359 (2 + 2)
# B15: 2 + 2 PD1TIM3_0358: chimeric PD1-0103/Tim3-0028 (bispecific antibody, human IgG1, kappa, L234A L235A)
# heavy: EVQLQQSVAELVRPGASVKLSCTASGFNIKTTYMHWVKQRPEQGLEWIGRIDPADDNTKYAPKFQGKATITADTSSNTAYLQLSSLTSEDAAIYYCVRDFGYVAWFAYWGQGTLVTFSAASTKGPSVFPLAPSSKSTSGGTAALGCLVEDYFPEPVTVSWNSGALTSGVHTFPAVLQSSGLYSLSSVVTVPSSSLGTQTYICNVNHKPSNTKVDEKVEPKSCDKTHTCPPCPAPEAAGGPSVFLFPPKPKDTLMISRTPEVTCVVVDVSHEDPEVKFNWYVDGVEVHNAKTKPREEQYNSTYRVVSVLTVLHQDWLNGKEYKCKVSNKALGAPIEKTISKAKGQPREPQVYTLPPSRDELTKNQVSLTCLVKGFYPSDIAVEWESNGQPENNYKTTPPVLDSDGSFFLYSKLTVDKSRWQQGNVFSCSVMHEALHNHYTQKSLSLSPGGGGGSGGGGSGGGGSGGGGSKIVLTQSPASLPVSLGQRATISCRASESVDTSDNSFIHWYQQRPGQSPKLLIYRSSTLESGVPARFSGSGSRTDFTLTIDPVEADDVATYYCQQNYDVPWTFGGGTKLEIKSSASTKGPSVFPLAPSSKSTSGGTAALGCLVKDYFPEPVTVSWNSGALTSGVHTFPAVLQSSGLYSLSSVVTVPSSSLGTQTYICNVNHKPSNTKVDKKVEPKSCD
# light 1: NIVMTPTPKFLPVSSGDRVTMTCRASQSVDNYVAWYQQKPGQSPKLLIYYASNRYIGVPDRFTGSGSGTDFTFTISSVQVEDLAVYFCQQHYSSPYTFGSGTKLEIKRTVAAPSVFIFPPSDRKLKSGTASVVCLLNNFYPREAKVQWKVDNALQSGNSQESVTEQDSKDSTYSLSSTLTLSKADYEKHKVYACEVTHQG
# light 2: B14 light 2
# notes: Tetravalent 2+2 CrossMAb VH-VL with charged substitutions in the CH1/CL interfaces; also called PD1TIM3-0358 (2 + 2)
# B16: DR5TAA-0077 (bispecific antibody, human IgG1, kappa)
# light 1: not shown
# heavy: not shown
# light 2: EIVLTQSPGTLSLSPGERATLSCRASQSVSRSYLAWYQQKPGQAPRLLIIGASTRATGIPDRFSGSGSGTDFTLTISRLEPEDFAVYYCQQGQVIPPTFGQGTKVEIKRTVAAPSVFIFPPSDEQLKSGTASVVCLLNNFYPREAKVQWKVDNALQSGNSQESVTEQDSKDSTYSLSSTLTLSKADYEKHKVYACEVTHQGLSSPVTKSFNRGEC
# notes: Tetravalent 2+2: DR5 core antibody (VH/VL crossover on DR5) with two FAP Fabs fused to the HC C-termini; wild type CH1/CL interface; also called DR5TAA-0077 (control)
# B17: DR5TAA-0081 (bispecific antibody, human IgG1, kappa, L234A L235A)
# light 1: EVQLLESGGGLVQPGGSLRLSCAASGFTFSSHAMSWVRQAPGKGLEWVSAIWASGEQYYADSVKGRFTISRDNSKNTLYLQMNSLRAEDTAVYYCAKGWLGNFDYWGQGTLVTVSSASVAAPSVFIFPPSDEQLKSGTASVVCLLNNFYPREAKVQWKVDNALQSGNSQESVTEQDSKDSTYSLSSTLTLSKADYEKHKVYACEVTHQGLSSPVTKSFNRGEC
# heavy: not shown
# light 2: B16 light 2 with R31S, I50Y, T54S, Q93T, V94T, I95H, P97I
# notes: Tetravalent 2+2: DR5 core antibody with two VH/VL-crossed FAP Fabs fused to the HC C-termini; wild type CH1/CL interface; the set of three chains is the same; also called DR5TAA-0081 (control)
# B18: DR5TAA-0078 (bispecific antibody)
# light 1: EIVLTQSPGTLSLSPGERATLSCRASQSVSSSYLAWYQQKPGQAPRLLIYGASSRATGIPDRFSGSGSGTDFTLTISRLEPEDFAVYYCQQGTTHPITFGQGTKVEIKSSASTKGPSVFPLAPSSKSTSGGTAALGCLVKDYFPEPVTVSWNSGALTSGVHTFPAVLQSSGLYSLSSVVTVPSSSLGTQTYICNVNHKPSNTKVDKKVEPKSCD
# heavy: not shown
# light 2: B16 light 2
# notes: Tetravalent 2+2: DR5 core antibody with CH1-CL crossover on DR5 (instead of VH/VL), two FAP Fabs fused to the HC C-termini; wild type CH1/CL interface; also called DR5TAA-0078 (control)
# B19: DR5TAA-0082 (bispecific antibody, human IgG1, kappa, L234A L235A)
# light 1: B16 light 2 with R31S, I50Y, T54S, Q93T, V94T, I95H, P97I, E124R, Q125K
# heavy: not shown
# light 2: B17 light 1 with Q133E
# notes: Tetravalent 2+2, VH/VL crossover on FAP
# B20: DR5TAA-0083 (bispecific antibody, human IgG1, kappa, L234A L235A)
# light 1: not shown
# heavy: not shown
# light 2: B16 light 2 with E124R, Q125K
# notes: Tetravalent 2+2, VH/VL crossover on DR5
# Assays:
# [1] = target: T1, biotinylated PD1-ECD-AviHis (human, UniProt Q15116 25-170, biotinylated (Avi tag)); test: ELISA on biotinylated PD1-ECD-AviHis
# T1 construct: extracellular domain; also called huPD1; hu PD1; not shown: Avi and His tags
# human Ang-2-RBD-Fc = target: T2, human Ang-2-RBD-Fc (human, UniProt O15123 275-496, limits assumed); test: SPR (Biacore T200), antibody captured via anti-human F(ab')2, Ang2-RBD-Fc in solution, apparent KD, 1:1 Langmuir
# T2 construct: domain: RBD; not shown: Fc part
# T2 sequence (looked up): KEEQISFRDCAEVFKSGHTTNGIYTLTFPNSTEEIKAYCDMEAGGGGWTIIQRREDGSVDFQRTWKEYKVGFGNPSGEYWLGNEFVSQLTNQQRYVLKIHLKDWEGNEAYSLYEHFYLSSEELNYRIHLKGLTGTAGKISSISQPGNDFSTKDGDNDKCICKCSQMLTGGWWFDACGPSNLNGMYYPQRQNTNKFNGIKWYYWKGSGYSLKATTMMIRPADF
# human VEGF-A-121-His = target: T3, human VEGF-A-121-His (human, UniProt P15692-9 27-147); test: SPR (Biacore T200), VEGF-A-121-His captured via anti-His, antibody in solution, 1:1 Langmuir
# T3 construct: also called VEFG-A-121-His; not shown: His tag
# T3 sequence (looked up): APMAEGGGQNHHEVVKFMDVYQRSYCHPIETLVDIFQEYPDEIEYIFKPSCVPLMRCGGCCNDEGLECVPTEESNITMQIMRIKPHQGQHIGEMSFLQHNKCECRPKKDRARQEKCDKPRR
# [2] = target: T4, biotinylated Tim3-ECD-AviHis (human, UniProt Q8TDQ0 22-202, biotinylated (Avi tag)); test: ELISA, biotinylated Tim3-ECD-AviHis on streptavidin plates
# T4 construct: extracellular domain; also called huTIM3; hu Tim3; not shown: Avi and His tags
# human PD1-ECD = target: T5, human PD1-ECD (human, UniProt Q15116 25-170); test: SPR (Biacore T200), antibody captured via anti-human Fc IgG, human PD1-ECD in solution, 1:1 Langmuir
# T5 construct: extracellular domain; Analyte of the Biacore assay; also called hu PD1-ECD
# Protocol: Different samples were injected for 15 seconds with a concentration of 10 nM and consecutively bound to the flow cells 2, 3 and 4. […] Finally the double referenced data was fitted to a 1:1 langmuir interaction model with the Biacore™ T200 Evaluation Software.
# human Tim3-ECD [3] = target: T6, human Tim3-ECD (human, UniProt Q8TDQ0 22-202); test: SPR (Biacore T200), antibody captured via anti-human Fab IgG, human Tim3-ECD in solution, 1:1 Langmuir
# T6 construct: extracellular domain; Analyte of the Biacore assay; also called hu Tim3-ECD
# Protocol: (§1) The sample and running buffer was HBS-EP+ (0.01 M HEPES, 0.15 M NaCl, 3 mM EDTA, 0.05% v/v Surfactant P20, pH 7.4). Flow cell temperature was set to 25° C. and sample compartment temperature to 12° C. The system was primed with running buffer.
# (§2) Different samples were injected for 30 seconds with a concentration of 10 nM and bound consecutively to the flow cells 2, 3 and 4. […] Finally the double referenced data was fitted to a 1:1 langmuir interaction model with the Biacore™ T200 Evaluation Software.
# [4] = target: T1, biotinylated PD1-ECD-AviHis; test: ELISA, biotinylated PD1-ECD-AviHis on streptavidin plates
# Protocol: After washing (3×90 μl/well with PBST-buffer) 25 μl anti PD1 antibody samples were added in increasing concentrations and incubated 1h at RT. After washing (3×90 μl/well with PBST-buffer) 25 μl/well goat-anti-human H+L-POD (JIR, JIR109-036-098) was added in 1:5000 dilution and incubated at RT for 1 h on a shaker.
# human Tim3-ECD [5] = target: T6, human Tim3-ECD; test: SPR (Biacore T200), antibody captured via anti-human Fab IgG, human Tim3-ECD in solution, 1:1 Langmuir; 2 + 2 bispecific format, Tim3-arm
# Protocol: as §1, §2
# human FAP = target: T7, human FAP (human, UniProt Q12884 26-760); test: SPR (Biacore), antibody captured via anti-human IgG Fc, 5 ug/ml human FAP injected alone for 180 s
# T7 construct: also called hFAP
# T7 sequence (Q12884 26-760 limits assumed): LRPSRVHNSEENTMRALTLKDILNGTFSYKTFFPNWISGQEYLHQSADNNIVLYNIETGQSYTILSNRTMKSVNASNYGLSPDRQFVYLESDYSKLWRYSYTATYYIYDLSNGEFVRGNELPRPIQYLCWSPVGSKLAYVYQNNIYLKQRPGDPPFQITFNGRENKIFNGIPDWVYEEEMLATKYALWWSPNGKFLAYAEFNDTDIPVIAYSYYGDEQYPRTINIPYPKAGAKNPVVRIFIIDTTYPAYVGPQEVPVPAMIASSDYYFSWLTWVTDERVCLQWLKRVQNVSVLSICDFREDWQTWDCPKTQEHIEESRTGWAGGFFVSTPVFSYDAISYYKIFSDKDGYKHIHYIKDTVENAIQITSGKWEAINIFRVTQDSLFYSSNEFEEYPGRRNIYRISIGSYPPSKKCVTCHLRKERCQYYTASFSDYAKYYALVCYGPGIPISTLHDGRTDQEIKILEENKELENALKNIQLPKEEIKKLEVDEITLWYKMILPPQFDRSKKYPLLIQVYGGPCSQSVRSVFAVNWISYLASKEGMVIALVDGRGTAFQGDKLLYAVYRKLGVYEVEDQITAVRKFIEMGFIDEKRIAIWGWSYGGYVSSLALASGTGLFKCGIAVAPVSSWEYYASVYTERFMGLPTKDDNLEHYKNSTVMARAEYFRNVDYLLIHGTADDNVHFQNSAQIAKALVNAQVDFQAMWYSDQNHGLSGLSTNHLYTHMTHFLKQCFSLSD
# Description: Therefore a <Fc> capturing IgG is immobilized on the chip surface and the different DR5TAA CrossMAbs is captured. In the experiment the targets DR5 and FAP were either added individually or simultaneously to the captured CrossMAb.
Binder,Kd (human Ang-2-RBD-Fc) [nM],Kd (human VEGF-A-121-His) [nM],other results
B1,–,–,binding result [1]: no binding
B2,15,6,–
B3,15,4,–
B4,14,4,–
B5,12,3,–
B6,14,4,–
B7,14,4,–
B8,15,4,–
B9,13,4,–
B10,17,3,–
B11,17,3,–
B12,12,4,–
B13,–,–,EC50 [2]: 0.15 nM; binding result [1]: no binding
B14,–,–,EC50 [2]: 0.11 nM; Kd (human PD1-ECD): 1.9 nM; Kd (human Tim3-ECD [3]): 0.3 nM; EC50 [4]: 0.09 nM
B15,–,–,EC50 [2]: 0.19 nM; EC50 [4]: 0.08 nM; Kd (human Tim3-ECD [5]): 2.2 nM
B16,–,–,FAP signal [RU max] (human FAP): 41.9 RU
B17,–,–,FAP signal [RU max] (human FAP): 7.2 RU
B18,–,–,FAP signal [RU max] (human FAP): 38.4 RU
B19,–,–,FAP signal [RU max] (human FAP): 7.4 RU
B20,–,–,FAP signal [RU max] (human FAP): 18.5 RU
